Experimental findings from patent US20060240110A1 (published 2006) are described below.

For data set [1], the target named is T1, streptavidin (SA chip surface) (UniProt P22629 37-163, limits assumed).
T1 construct: Commercial chip coating; the construct is not described; also called streptavidin-coated chip
The experiment in a line: SPR, Biacore 3000, streptavidin-coated chip. A general note: Surface plasmon resonance follows binding to a sensor surface in real time, without labels.

Data set [2] deals with the molecule itself. The experiment in a line: circular dichroism, concentration dependence of MRE222 in PBS fitted for dimerization (coiled-coil self-association).

T1 sequence (P22629 37-163 limits assumed): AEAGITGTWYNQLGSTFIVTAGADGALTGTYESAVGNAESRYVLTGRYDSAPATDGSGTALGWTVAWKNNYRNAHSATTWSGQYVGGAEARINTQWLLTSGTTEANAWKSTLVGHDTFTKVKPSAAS

B1: PF4ZIP (peptide)
peptide: CGGRMKQLEDKVKKLLKKNYHLENEVARLKKLVG
notes: The entry is the single chain; the Kd is for its self-association into a coiled-coil dimer; also called PF4ZIP peptide
A word on the Kd: it is the concentration at which binding is half-saturated. As to B1, the binding result in data set [1] was “no binding”. The molecule also showed a dissociation constant (Kd) in data set [2] of 3.48 µM.
